molecular target: T1, MHC class I molecule A*0101 (biotin (bound to streptavidin-coated plate)); test: iTopia iScore
T1 construct: also called A1; HLA-A1
Procedure: (§1) The 9 mers were tested for Peptide Binding, Off Rate and Affinity using iTopia Epitope Discovery System in accordance with the manufacturer's instructions. Briefly, 96 well microtitre plates coated with MHC molecules representing different MHC alleles are used to identify candidate peptides. […] Determinations are performed in duplicate using an ELISA plate reader and included allele specific positive controls.
(§2) Finally, multiparametric analysis is performed on the results from these assays and an iScore is generated. The iScore represents a measure of the overall quality of peptide-MHC binding, enabling candidate peptides to be ranked in order of binding quality and allowing rational prioritisation of peptides for functional cellular follow-up studies.

Row | Binder | iScore
1 | TDLPAYVRN [5T4 9-mer peptide 44 TDLPAYVRN] | 0
2 | SSAPFLASA [5T4 9-mer peptide 22 SSAPFLASA] | 0
3 | SSSPTSSAS [5T4 9-mer peptide 16 SSSPTSSAS] | 0
4 | VPTDLPAYV [5T4 9-mer peptide 43 VPTDLPAYV] | 0.098
5 | SEAARTVKC [5T4 9-mer peptide 35 SEAARTVKC] | 0
6 | APFLASAVS [5T4 9-mer peptide 23 APFLASAVS] | 0
7 | LCECSEAAR [5T4 9-mer peptide 33 LCECSEAAR] | 0
8 | CSRGPAAGD [5T4 9-mer peptide 3 CSRGPAAGD] | 0
9 | FSSSAPFLA [5T4 9-mer peptide 21 FSSSAPFLA] | 0.023
10 | AARTVKCVN [5T4 9-mer peptide 36 AARTVKCVN] | 0
11 | LALVLLGWV [5T4 9-mer peptide 11 LALVLLGWV] | 0
12 | ARLALVLLG [5T4 9-mer peptide 10 ARLALVLLG] | 0
13 | DGRLRLARL [5T4 9-mer peptide 7 DGRLRLARL] | 0
14 | VSSSSPTSS [5T4 9-mer peptide 15 VSSSSPTSS] | 0
15 | PAAGDGRLR [5T4 9-mer peptide 5 PAAGDGRLR] | 0
16 | TSSASSFSS [5T4 9-mer peptide 18 TSSASSFSS] | 0
17 | AYVRNLFLT [5T4 9-mer peptide 46 AYVRNLFLT] | 0
18 | MPGGCSRGP [5T4 9-mer peptide 1 MPGGCSRGP] | 0
19 | QCPALCECS [5T4 9-mer peptide 31 QCPALCECS] | 0
20 | SAQPPLPDQ [5T4 9-mer peptide 27 SAQPPLPDQ] | 0
21 | AVSAQPPLP [5T4 9-mer peptide 26 AVSAQPPLP] | 0
22 | RTVKCVNRN [5T4 9-mer peptide 37 RTVKCVNRN] | 0
23 | QPPLPDQCP [5T4 9-mer peptide 28 QPPLPDQCP] | 0

molecular target: T2, MHC class I molecule A*0201 (biotin (bound to streptavidin-coated plate)); test: iTopia iScore
T2 construct: also called A2; HLA-A2
Procedure: as §1, §2

Row | Binder | iScore
24 | TDLPAYVRN [5T4 9-mer peptide 44 TDLPAYVRN] | 0
25 | SSAPFLASA [5T4 9-mer peptide 22 SSAPFLASA] | 0.389
26 | SSSPTSSAS [5T4 9-mer peptide 16 SSSPTSSAS] | 0
27 | VPTDLPAYV [5T4 9-mer peptide 43 VPTDLPAYV] | 0.059
28 | SEAARTVKC [5T4 9-mer peptide 35 SEAARTVKC] | 0
29 | APFLASAVS [5T4 9-mer peptide 23 APFLASAVS] | 0.041
30 | LCECSEAAR [5T4 9-mer peptide 33 LCECSEAAR] | 0
31 | CSRGPAAGD [5T4 9-mer peptide 3 CSRGPAAGD] | 0
32 | FSSSAPFLA [5T4 9-mer peptide 21 FSSSAPFLA] | 0.116
33 | AARTVKCVN [5T4 9-mer peptide 36 AARTVKCVN] | 0.115
34 | LALVLLGWV [5T4 9-mer peptide 11 LALVLLGWV] | 0.237
35 | ARLALVLLG [5T4 9-mer peptide 10 ARLALVLLG] | 0.143
36 | DGRLRLARL [5T4 9-mer peptide 7 DGRLRLARL] | 0
37 | VSSSSPTSS [5T4 9-mer peptide 15 VSSSSPTSS] | 0
38 | PAAGDGRLR [5T4 9-mer peptide 5 PAAGDGRLR] | 0
39 | TSSASSFSS [5T4 9-mer peptide 18 TSSASSFSS] | 0.037
40 | AYVRNLFLT [5T4 9-mer peptide 46 AYVRNLFLT] | 0.18
41 | MPGGCSRGP [5T4 9-mer peptide 1 MPGGCSRGP] | 0
42 | QCPALCECS [5T4 9-mer peptide 31 QCPALCECS] | 0
43 | SAQPPLPDQ [5T4 9-mer peptide 27 SAQPPLPDQ] | 0
44 | AVSAQPPLP [5T4 9-mer peptide 26 AVSAQPPLP] | 0.062
45 | RTVKCVNRN [5T4 9-mer peptide 37 RTVKCVNRN] | 0
46 | QPPLPDQCP [5T4 9-mer peptide 28 QPPLPDQCP] | 0

molecular target: T3, MHC class I molecule A*0301 (biotin (bound to streptavidin-coated plate)); test: iTopia iScore
T3 construct: also called A3; HLA-A3
Procedure: as §1, §2

Row | Binder | iScore
47 | TDLPAYVRN [5T4 9-mer peptide 44 TDLPAYVRN] | 0
48 | SSAPFLASA [5T4 9-mer peptide 22 SSAPFLASA] | 0
49 | SSSPTSSAS [5T4 9-mer peptide 16 SSSPTSSAS] | 0
50 | VPTDLPAYV [5T4 9-mer peptide 43 VPTDLPAYV] | 0
51 | SEAARTVKC [5T4 9-mer peptide 35 SEAARTVKC] | 0
52 | APFLASAVS [5T4 9-mer peptide 23 APFLASAVS] | 0
53 | LCECSEAAR [5T4 9-mer peptide 33 LCECSEAAR] | 0
54 | CSRGPAAGD [5T4 9-mer peptide 3 CSRGPAAGD] | 0
55 | FSSSAPFLA [5T4 9-mer peptide 21 FSSSAPFLA] | 0
56 | AARTVKCVN [5T4 9-mer peptide 36 AARTVKCVN] | 0
57 | LALVLLGWV [5T4 9-mer peptide 11 LALVLLGWV] | 0
58 | ARLALVLLG [5T4 9-mer peptide 10 ARLALVLLG] | 0
59 | DGRLRLARL [5T4 9-mer peptide 7 DGRLRLARL] | 0
60 | VSSSSPTSS [5T4 9-mer peptide 15 VSSSSPTSS] | 0
61 | PAAGDGRLR [5T4 9-mer peptide 5 PAAGDGRLR] | 0
62 | TSSASSFSS [5T4 9-mer peptide 18 TSSASSFSS] | 0
63 | AYVRNLFLT [5T4 9-mer peptide 46 AYVRNLFLT] | 0
64 | MPGGCSRGP [5T4 9-mer peptide 1 MPGGCSRGP] | 0
65 | QCPALCECS [5T4 9-mer peptide 31 QCPALCECS] | 0
66 | SAQPPLPDQ [5T4 9-mer peptide 27 SAQPPLPDQ] | 0
67 | AVSAQPPLP [5T4 9-mer peptide 26 AVSAQPPLP] | 0
68 | RTVKCVNRN [5T4 9-mer peptide 37 RTVKCVNRN] | 0
69 | QPPLPDQCP [5T4 9-mer peptide 28 QPPLPDQCP] | 0

molecular target: T4, MHC class I molecule B*0702 (biotin (bound to streptavidin-coated plate)); test: iTopia iScore
T4 construct: also called B7; HLA-B7
Procedure: as §1, §2

Row | Binder | iScore
70 | TDLPAYVRN [5T4 9-mer peptide 44 TDLPAYVRN] | 0
71 | SSAPFLASA [5T4 9-mer peptide 22 SSAPFLASA] | 0
72 | SSSPTSSAS [5T4 9-mer peptide 16 SSSPTSSAS] | 0
73 | VPTDLPAYV [5T4 9-mer peptide 43 VPTDLPAYV] | 0
74 | SEAARTVKC [5T4 9-mer peptide 35 SEAARTVKC] | 0
75 | APFLASAVS [5T4 9-mer peptide 23 APFLASAVS] | 0.176
76 | LCECSEAAR [5T4 9-mer peptide 33 LCECSEAAR] | 0
77 | CSRGPAAGD [5T4 9-mer peptide 3 CSRGPAAGD] | 0
78 | FSSSAPFLA [5T4 9-mer peptide 21 FSSSAPFLA] | 0
79 | AARTVKCVN [5T4 9-mer peptide 36 AARTVKCVN] | 0.059
80 | LALVLLGWV [5T4 9-mer peptide 11 LALVLLGWV] | 0
81 | ARLALVLLG [5T4 9-mer peptide 10 ARLALVLLG] | 0
82 | DGRLRLARL [5T4 9-mer peptide 7 DGRLRLARL] | 0.038
83 | VSSSSPTSS [5T4 9-mer peptide 15 VSSSSPTSS] | 0
84 | PAAGDGRLR [5T4 9-mer peptide 5 PAAGDGRLR] | 0
85 | TSSASSFSS [5T4 9-mer peptide 18 TSSASSFSS] | 0
86 | AYVRNLFLT [5T4 9-mer peptide 46 AYVRNLFLT] | 0
87 | MPGGCSRGP [5T4 9-mer peptide 1 MPGGCSRGP] | 0
88 | QCPALCECS [5T4 9-mer peptide 31 QCPALCECS] | 0
89 | SAQPPLPDQ [5T4 9-mer peptide 27 SAQPPLPDQ] | 0
90 | AVSAQPPLP [5T4 9-mer peptide 26 AVSAQPPLP] | 0
91 | RTVKCVNRN [5T4 9-mer peptide 37 RTVKCVNRN] | 0
92 | QPPLPDQCP [5T4 9-mer peptide 28 QPPLPDQCP] | 0

From patent US20090280138A1 (OXFORD BIOMEDICA UK, published 2009)
